Test results taken from US20100272709A1 (GENERAL HOSPITAL, published 2010).
Each block holds one molecule with its values, some of them ahead of it.

Columns and labels:
[1] = molecular target: mouse monoclonal anti-dynamin GTPase antibody (Stressgene), recognizes the N-terminal GTPase domain; experiment: FLIM/FRET in fixed podocytes; lifetime of donor GTPase-Alexa488 with acceptor DAM-Alexa568; + control
[2] = molecular target: mouse monoclonal anti-dynamin GTPase antibody (Stressgene), recognizes the N-terminal GTPase domain; experiment: FLIM/FRET in fixed podocytes; lifetime of donor GTPase-a488 with acceptor DAM-a568; + control
[3] = molecular target: dynK44A (dominant-negative dynamin mutant that cannot bind GTP) (UniProt Q05193); experiment: FLIM/FRET in fixed podocytes; donor GTPase-a488, acceptor Hudy1-a568; self-assembly
[4] = molecular target: dynK44A (dominant-negative dynamin mutant that cannot bind GTP) (UniProt Q05193); experiment: FLIM/FRET in fixed podocytes treated with cytochalasin D; donor GTPase-a488, acceptor Hudy1-a568; self-assembly
[5] = molecular target: mouse monoclonal anti-dynamin GTPase antibody (Stressgene), recognizes the N-terminal GTPase domain; experiment: FLIM/FRET in fixed podocytes; lifetime of donor GTPase-Alexa488 with acceptor GAR-Alexa568; - control
[6] = molecular target: wild type dynamin (dynWT; recombinant dynamin 1) (UniProt Q05193); experiment: FLIM/FRET in fixed podocytes; donor GTPase-a488, acceptor Hudy1-a568; self-assembly
[7] = molecular target: wild type dynamin (dynWT; recombinant dynamin 1) (UniProt Q05193); experiment: FLIM/FRET in fixed podocytes treated with colchicine; donor GTPase-a488, acceptor Hudy1-a568; variant not given, taken as WT
[8] = molecular target: wild type dynamin (dynWT; recombinant dynamin 1) (UniProt Q05193); experiment: FLIM/FRET in fixed podocytes; donor GTPase-alexa488, acceptor hudy1-alexa568; the value differs from the WT row of Table 1
[9] = molecular target: wild type dynamin (dynWT; recombinant dynamin 1) (UniProt Q05193); experiment: FLIM/FRET in fixed podocytes treated with jasplakinolide; donor GTPase-a488, acceptor Hudy1-a568; variant not given, taken as WT
[10] = molecular target: wild type dynamin (dynWT; recombinant dynamin 1) (UniProt Q05193); experiment: FLIM/FRET in fixed podocytes treated with LPS + E64; donor GTPase-Alexa488, acceptor Hudy1-Alexa568; self-assembly
[11] = molecular target: wild type dynamin (dynWT; recombinant dynamin 1) (UniProt Q05193); experiment: FLIM/FRET in fixed podocytes; donor GTPase-a488, acceptor GTPase-a568 (same antibody on both); the text says no FRET signal was detected with this antibody pair
[12] = molecular target: wild type dynamin (dynWT; recombinant dynamin 1) (UniProt Q05193); experiment: FLIM/FRET in fixed podocytes expressing the variant; donor GTPase-Alexa488, acceptor Hudy1-Alexa568; shorter lifetime = dynamin higher order self-assembly
[13] = molecular target: wild type dynamin (dynWT; recombinant dynamin 1) (UniProt Q05193); experiment: FLIM/FRET in fixed podocytes treated with cytochalasin D; donor GTPase-a488, acceptor Hudy1-a568; self-assembly
[14] = molecular target: wild type dynamin (dynWT; recombinant dynamin 1) (UniProt Q05193); experiment: FLIM/FRET in fixed podocytes treated with LPS; donor GTPase-Alexa488, acceptor Hudy1-Alexa568; self-assembly
[15] = molecular target: T1, EYFP-dynK44A fusion (UniProt Q05193); experiment: FLIM/FRET in live COS cells; lifetime of the ECFP donor; self-assembly
T1 sequence (looked up): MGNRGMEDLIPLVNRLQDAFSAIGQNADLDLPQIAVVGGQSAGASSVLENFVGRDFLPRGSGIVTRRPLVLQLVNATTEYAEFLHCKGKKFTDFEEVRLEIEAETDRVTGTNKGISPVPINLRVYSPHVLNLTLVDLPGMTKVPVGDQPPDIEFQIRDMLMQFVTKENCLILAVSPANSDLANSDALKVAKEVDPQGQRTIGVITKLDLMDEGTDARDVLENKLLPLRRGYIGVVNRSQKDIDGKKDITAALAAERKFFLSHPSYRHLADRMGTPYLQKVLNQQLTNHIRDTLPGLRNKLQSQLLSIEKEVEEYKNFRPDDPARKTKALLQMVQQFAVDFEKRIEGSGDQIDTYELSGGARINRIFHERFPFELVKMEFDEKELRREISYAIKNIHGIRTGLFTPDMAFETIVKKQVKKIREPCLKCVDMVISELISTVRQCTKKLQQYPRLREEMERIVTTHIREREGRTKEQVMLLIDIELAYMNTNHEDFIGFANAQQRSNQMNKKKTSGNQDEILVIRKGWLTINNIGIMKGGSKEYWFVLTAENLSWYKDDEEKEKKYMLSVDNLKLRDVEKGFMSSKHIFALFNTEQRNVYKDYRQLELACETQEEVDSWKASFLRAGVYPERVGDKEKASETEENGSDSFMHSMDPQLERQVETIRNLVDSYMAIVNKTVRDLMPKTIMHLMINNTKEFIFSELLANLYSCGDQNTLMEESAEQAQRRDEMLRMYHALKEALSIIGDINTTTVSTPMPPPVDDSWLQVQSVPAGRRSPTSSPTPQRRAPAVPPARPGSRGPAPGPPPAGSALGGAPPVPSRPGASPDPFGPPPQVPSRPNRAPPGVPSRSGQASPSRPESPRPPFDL

[16] = molecular target: dynK694A (assembly impaired, dominant activating dynamin mutant) (UniProt Q05193); experiment: FLIM/FRET in fixed podocytes; donor GTPase-a488, acceptor Hudy1-a568; self-assembly
[17] = molecular target: dynK694A (assembly impaired, dominant activating dynamin mutant) (UniProt Q05193); experiment: FLIM/FRET in fixed podocytes treated with cytochalasin D; donor GTPase-a488, acceptor Hudy1-a568; self-assembly
[18] = molecular target: dynK694A (assembly impaired, dominant activating dynamin mutant) (UniProt Q05193); experiment: FLIM/FRET in fixed podocytes expressing the variant; donor GTPase-Alexa488, acceptor Hudy1-Alexa568; self-assembly
[19] = molecular target: dynI690K (assembly incompetent dynamin mutant) (UniProt Q05193); experiment: FLIM/FRET in fixed podocytes; donor GTPase-a488, acceptor Hudy1-a568; self-assembly
[20] = molecular target: dynI690K (assembly incompetent dynamin mutant) (UniProt Q05193); experiment: FLIM/FRET in fixed podocytes treated with cytochalasin D; donor GTPase-a488, acceptor Hudy1-a568; self-assembly

Molecule: goat anti-rabbit-alexa568 (GARalexa568), negative control acceptor (antibody)
Mean Lifetime (γ1) [5]: 2420

Molecule: wild type dynamin (dynWT; recombinant dynamin 1) (from UniProt Q05193 1-864) (enzyme)
Mean Lifetime (γ1) [6]: 2250 ps
Mean Lifetime (γ1) [7]: 2300 ps
lifetime t1 [8]: 2270 ps
Mean Lifetime (γ1) [9]: 2250 ps
Mean Lifetime (γ1) [10]: 2280 ps
Mean Lifetime (γ1) [11]: 2420 ps
Mean Lifetime (γ1) [12]: 2210 ps
Mean Lifetime (γ1) [13]: 2030 ps
Mean Lifetime (γ1) [14]: 2560 ps

B2: dynK694A (assembly impaired, dominant activating dynamin mutant) (enzyme, UniProt Q05193 1-864, looked up)
chain: MGNRGMEDLIPLVNRLQDAFSAIGQNADLDLPQIAVVGGQSAGKSSVLENFVGRDFLPRGSGIVTRRPLVLQLVNATTEYAEFLHCKGKKFTDFEEVRLEIEAETDRVTGTNKGISPVPINLRVYSPHVLNLTLVDLPGMTKVPVGDQPPDIEFQIRDMLMQFVTKENCLILAVSPANSDLANSDALKVAKEVDPQGQRTIGVITKLDLMDEGTDARDVLENKLLPLRRGYIGVVNRSQKDIDGKKDITAALAAERKFFLSHPSYRHLADRMGTPYLQKVLNQQLTNHIRDTLPGLRNKLQSQLLSIEKEVEEYKNFRPDDPARKTKALLQMVQQFAVDFEKRIEGSGDQIDTYELSGGARINRIFHERFPFELVKMEFDEKELRREISYAIKNIHGIRTGLFTPDMAFETIVKKQVKKIREPCLKCVDMVISELISTVRQCTKKLQQYPRLREEMERIVTTHIREREGRTKEQVMLLIDIELAYMNTNHEDFIGFANAQQRSNQMNKKKTSGNQDEILVIRKGWLTINNIGIMKGGSKEYWFVLTAENLSWYKDDEEKEKKYMLSVDNLKLRDVEKGFMSSKHIFALFNTEQRNVYKDYRQLELACETQEEVDSWKASFLRAGVYPERVGDKEKASETEENGSDSFMHSMDPQLERQVETIRNLVDSYMAIVNKTVRDLMPKTIMHLMINNTAEFIFSELLANLYSCGDQNTLMEESAEQAQRRDEMLRMYHALKEALSIIGDINTTTVSTPMPPPVDDSWLQVQSVPAGRRSPTSSPTPQRRAPAVPPARPGSRGPAPGPPPAGSALGGAPPVPSRPGASPDPFGPPPQVPSRPNRAPPGVPSRSGQASPSRPESPRPPFDL
Mean Lifetime (γ1) [16]: 2410 ps
Mean Lifetime (γ1) [17]: 2050 ps
Mean Lifetime (γ1) [18]: 2410 ps

B3: dynI690K (assembly incompetent dynamin mutant) (enzyme, UniProt Q05193 1-864, looked up)
chain: MGNRGMEDLIPLVNRLQDAFSAIGQNADLDLPQIAVVGGQSAGKSSVLENFVGRDFLPRGSGIVTRRPLVLQLVNATTEYAEFLHCKGKKFTDFEEVRLEIEAETDRVTGTNKGISPVPINLRVYSPHVLNLTLVDLPGMTKVPVGDQPPDIEFQIRDMLMQFVTKENCLILAVSPANSDLANSDALKVAKEVDPQGQRTIGVITKLDLMDEGTDARDVLENKLLPLRRGYIGVVNRSQKDIDGKKDITAALAAERKFFLSHPSYRHLADRMGTPYLQKVLNQQLTNHIRDTLPGLRNKLQSQLLSIEKEVEEYKNFRPDDPARKTKALLQMVQQFAVDFEKRIEGSGDQIDTYELSGGARINRIFHERFPFELVKMEFDEKELRREISYAIKNIHGIRTGLFTPDMAFETIVKKQVKKIREPCLKCVDMVISELISTVRQCTKKLQQYPRLREEMERIVTTHIREREGRTKEQVMLLIDIELAYMNTNHEDFIGFANAQQRSNQMNKKKTSGNQDEILVIRKGWLTINNIGIMKGGSKEYWFVLTAENLSWYKDDEEKEKKYMLSVDNLKLRDVEKGFMSSKHIFALFNTEQRNVYKDYRQLELACETQEEVDSWKASFLRAGVYPERVGDKEKASETEENGSDSFMHSMDPQLERQVETIRNLVDSYMAIVNKTVRDLMPKTIMHLMKNNTKEFIFSELLANLYSCGDQNTLMEESAEQAQRRDEMLRMYHALKEALSIIGDINTTTVSTPMPPPVDDSWLQVQSVPAGRRSPTSSPTPQRRAPAVPPARPGSRGPAPGPPPAGSALGGAPPVPSRPGASPDPFGPPPQVPSRPNRAPPGVPSRSGQASPSRPESPRPPFDL
Mean Lifetime (γ1) [19]: 2360 ps
Mean Lifetime (γ1) [20]: 2430 ps

Second part, the molecule after the results:

Mean Lifetime (γ1) [1]: 1020
Mean Lifetime (γ1) [2]: 1020
Molecule: DAM-Alexa568 (secondary antibody used as positive control acceptor)

Mean Lifetime (γ1) [3]: 2520 ps
Mean Lifetime (γ1) [4]: 2310 ps
Molecule: dynK44A (dominant-negative dynamin mutant that cannot bind GTP) (from UniProt Q05193 1-864) (enzyme)

Mean Lifetime (γ1) ps [15]: 1860 ps
B1: ECFP-dynK44A fusion (protein, UniProt Q05193 1-864, looked up, not shown: large carriers)
chain: MGNRGMEDLIPLVNRLQDAFSAIGQNADLDLPQIAVVGGQSAGASSVLENFVGRDFLPRGSGIVTRRPLVLQLVNATTEYAEFLHCKGKKFTDFEEVRLEIEAETDRVTGTNKGISPVPINLRVYSPHVLNLTLVDLPGMTKVPVGDQPPDIEFQIRDMLMQFVTKENCLILAVSPANSDLANSDALKVAKEVDPQGQRTIGVITKLDLMDEGTDARDVLENKLLPLRRGYIGVVNRSQKDIDGKKDITAALAAERKFFLSHPSYRHLADRMGTPYLQKVLNQQLTNHIRDTLPGLRNKLQSQLLSIEKEVEEYKNFRPDDPARKTKALLQMVQQFAVDFEKRIEGSGDQIDTYELSGGARINRIFHERFPFELVKMEFDEKELRREISYAIKNIHGIRTGLFTPDMAFETIVKKQVKKIREPCLKCVDMVISELISTVRQCTKKLQQYPRLREEMERIVTTHIREREGRTKEQVMLLIDIELAYMNTNHEDFIGFANAQQRSNQMNKKKTSGNQDEILVIRKGWLTINNIGIMKGGSKEYWFVLTAENLSWYKDDEEKEKKYMLSVDNLKLRDVEKGFMSSKHIFALFNTEQRNVYKDYRQLELACETQEEVDSWKASFLRAGVYPERVGDKEKASETEENGSDSFMHSMDPQLERQVETIRNLVDSYMAIVNKTVRDLMPKTIMHLMINNTKEFIFSELLANLYSCGDQNTLMEESAEQAQRRDEMLRMYHALKEALSIIGDINTTTVSTPMPPPVDDSWLQVQSVPAGRRSPTSSPTPQRRAPAVPPARPGSRGPAPGPPPAGSALGGAPPVPSRPGASPDPFGPPPQVPSRPNRAPPGVPSRSGQASPSRPESPRPPFDL
